Assay results reported in patent US20070129307A1 (UNIVERSITY OF BRITISH COLUMBIA, published 2007).

T1: murine MHC class I molecule, H-2Kd (mouse, UniProt P01887 21-119; P01902 22-368, limits assumed)
T1 construct: whole, on cells; MHC class I molecule on the surface of RMAS-Kd cells
T1 sequence (MHC heavy, looked up): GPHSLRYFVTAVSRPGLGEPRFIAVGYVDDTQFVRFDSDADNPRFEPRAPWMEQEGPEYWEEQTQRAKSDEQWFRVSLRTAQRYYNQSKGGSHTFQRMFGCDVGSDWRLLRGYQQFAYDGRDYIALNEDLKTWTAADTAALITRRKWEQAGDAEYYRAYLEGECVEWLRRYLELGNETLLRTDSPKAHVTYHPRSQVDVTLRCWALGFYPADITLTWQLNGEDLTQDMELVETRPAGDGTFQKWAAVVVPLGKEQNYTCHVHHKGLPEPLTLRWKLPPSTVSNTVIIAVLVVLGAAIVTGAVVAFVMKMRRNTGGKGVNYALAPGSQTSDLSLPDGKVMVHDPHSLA
T1 sequence (b2m, looked up): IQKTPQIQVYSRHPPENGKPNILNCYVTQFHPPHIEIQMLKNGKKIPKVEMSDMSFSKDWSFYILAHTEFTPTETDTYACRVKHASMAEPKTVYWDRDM


How the values were obtained:
[1] = biological target: T1, murine MHC class I molecule, H-2Kd; test: MHC class I stabilization assay on TAP-deficient RMAS-Kd cells, anti-H-2Kd-FITC, flow cytometry (background without peptide 6.07%)
[2] = biological target: T2, human MHC class I molecule HLA-A*0201 (human); test: HLA-A2 stabilization on T2 cells loaded with 50 ug/ml peptide, anti-HLA-A2 (BB7.2) flow cytometry, MFI relative to CMV/A2
T2 construct: MHC class I molecule on the surface of T2 cells; also called HLA-A2; HLA-A201

[3] = biological target: T2, human MHC class I molecule HLA-A*0201; test: peptide/HLA-A2 complex stability on T2 cells after peptide removal and emetine, 37 C, anti-HLA-A2 flow cytometry, normalized to CMV/HLA-A2

Row | Binder | % of RMAS-Kd cells staining positive for surface H-2Kd [1] [%] | relative HLA-A2 surface expression (% of CMV/A2 peptide binding) [2] [%] | % of peptide/HLA-A2 complex dissociated in 4 hours [3] [%]
1 | LLPPLLEHL [IA-2(180)] |  | > 80 | 
2 | SLAAGVKLL [IA-2(482)] |  | > 80 | 
3 | KLPAVLLIL [murine IAPP precursor peptide mTV1] | 64.2 |  | 
4 | SLSPLQAEL [IA-2(172)] |  | > 80 | < 5
5 | KLQVFLIVL (also called HTV1; HTV-1) [IAPP5] |  |  | < 5
6 | FLIVLSVAL [IAPP9] |  |  | < 5
7 | FLWSVFMLI [IGRP152] |  |  | < 5
8 | FLFAVGFYL [IGRP215] |  |  | < 5

Continued, values first:

Row | % of RMAS-Kd cells staining positive for surface H-2Kd [1] [%] | relative HLA-A2 surface expression (% of CMV/A2 peptide binding) [2] [%] | % of peptide/HLA-A2 complex dissociated in 4 hours [3] [%] | Binder
9 | 70.1 |  |  | RLLPLLALL (Peptide derived from the mouse insulin protein) [TV3]
10 | 58.5 |  |  | KYPAVLLIL (Modified version of TV1 with leucine to tyrosine at position 2; also called MTV2) [TV2]
11 |  | > 80 | ~20 | ALWMRLLPL [Insulin2]
12 |  | > 80 | ~20 | GMAELMAGL [Phogrin331]
13 | 66.5 |  |  | KYQAVTTTL (also called negative control peptide TUM) [TUM]
14 |  |  | ~20 | RLLCALTSL [IGRP293]
